Reference: patent US20060088890A1

Legend:
[1] = target: angiotensin converting enzyme (ACE) (human) (UniProt P12821); test: indirect immunofluorescence flow cytometry, UT7 cells, BB9 at 20 µg/mL; grade = proportion of positive cells
[2] = target: angiotensin converting enzyme (ACE) (human) (UniProt P12821); test: indirect immunofluorescence flow cytometry, HL60 cells, BB9 at 20 µg/mL; grade = proportion of positive cells
[3] = target: angiotensin converting enzyme (ACE) (human) (UniProt P12821); test: indirect immunofluorescence flow cytometry, K562 cells, BB9 at 20 µg/mL; grade = proportion of positive cells
[4] = target: angiotensin converting enzyme (ACE) (human) (UniProt P12821); test: indirect immunofluorescence flow cytometry, KG-1 cells, BB9 at 20 µg/mL; grade = proportion of positive cells
[5] = target: angiotensin converting enzyme (ACE) (human) (UniProt P12821); test: indirect immunofluorescence flow cytometry, MG63 cells, BB9 at 20 µg/mL; grade = proportion of positive cells
[6] = target: angiotensin converting enzyme (ACE) (human) (UniProt P12821); test: indirect immunofluorescence flow cytometry, RC2A cells, BB9 at 20 µg/mL; grade = proportion of positive cells
[7] = target: angiotensin converting enzyme (ACE) (human) (UniProt P12821); test: indirect immunofluorescence flow cytometry, U937 cells, BB9 at 20 µg/mL; grade = proportion of positive cells
[8] = target: angiotensin converting enzyme (ACE) (human) (UniProt P12821); test: indirect immunofluorescence flow cytometry, MCF-7 cells, BB9 at 20 µg/mL; grade = proportion of positive cells
[9] = target: angiotensin converting enzyme (ACE) (human) (UniProt P12821); test: indirect immunofluorescence flow cytometry, HEL-DR cells, BB9 at 20 µg/mL; grade = proportion of positive cells
[10] = target: angiotensin converting enzyme (ACE) (human) (UniProt P12821); test: indirect immunofluorescence flow cytometry, Hi MEG cells, BB9 at 20 µg/mL; grade = proportion of positive cells
[11] = target: angiotensin converting enzyme (ACE) (human) (UniProt P12821); test: indirect immunofluorescence flow cytometry, MEG-01 cells, BB9 at 20 µg/mL; grade = proportion of positive cells
[12] = target: angiotensin converting enzyme (ACE) (human) (UniProt P12821); test: indirect immunofluorescence flow cytometry, Nalm-6 cells, BB9 at 20 µg/mL; grade = proportion of positive cells
[13] = target: angiotensin converting enzyme (ACE) (human) (UniProt P12821); test: indirect immunofluorescence flow cytometry, dermal fibroblasts, BB9 at 20 µg/mL; grade = proportion of positive cells

UniProt P12821, sequence (P12821 30-1306): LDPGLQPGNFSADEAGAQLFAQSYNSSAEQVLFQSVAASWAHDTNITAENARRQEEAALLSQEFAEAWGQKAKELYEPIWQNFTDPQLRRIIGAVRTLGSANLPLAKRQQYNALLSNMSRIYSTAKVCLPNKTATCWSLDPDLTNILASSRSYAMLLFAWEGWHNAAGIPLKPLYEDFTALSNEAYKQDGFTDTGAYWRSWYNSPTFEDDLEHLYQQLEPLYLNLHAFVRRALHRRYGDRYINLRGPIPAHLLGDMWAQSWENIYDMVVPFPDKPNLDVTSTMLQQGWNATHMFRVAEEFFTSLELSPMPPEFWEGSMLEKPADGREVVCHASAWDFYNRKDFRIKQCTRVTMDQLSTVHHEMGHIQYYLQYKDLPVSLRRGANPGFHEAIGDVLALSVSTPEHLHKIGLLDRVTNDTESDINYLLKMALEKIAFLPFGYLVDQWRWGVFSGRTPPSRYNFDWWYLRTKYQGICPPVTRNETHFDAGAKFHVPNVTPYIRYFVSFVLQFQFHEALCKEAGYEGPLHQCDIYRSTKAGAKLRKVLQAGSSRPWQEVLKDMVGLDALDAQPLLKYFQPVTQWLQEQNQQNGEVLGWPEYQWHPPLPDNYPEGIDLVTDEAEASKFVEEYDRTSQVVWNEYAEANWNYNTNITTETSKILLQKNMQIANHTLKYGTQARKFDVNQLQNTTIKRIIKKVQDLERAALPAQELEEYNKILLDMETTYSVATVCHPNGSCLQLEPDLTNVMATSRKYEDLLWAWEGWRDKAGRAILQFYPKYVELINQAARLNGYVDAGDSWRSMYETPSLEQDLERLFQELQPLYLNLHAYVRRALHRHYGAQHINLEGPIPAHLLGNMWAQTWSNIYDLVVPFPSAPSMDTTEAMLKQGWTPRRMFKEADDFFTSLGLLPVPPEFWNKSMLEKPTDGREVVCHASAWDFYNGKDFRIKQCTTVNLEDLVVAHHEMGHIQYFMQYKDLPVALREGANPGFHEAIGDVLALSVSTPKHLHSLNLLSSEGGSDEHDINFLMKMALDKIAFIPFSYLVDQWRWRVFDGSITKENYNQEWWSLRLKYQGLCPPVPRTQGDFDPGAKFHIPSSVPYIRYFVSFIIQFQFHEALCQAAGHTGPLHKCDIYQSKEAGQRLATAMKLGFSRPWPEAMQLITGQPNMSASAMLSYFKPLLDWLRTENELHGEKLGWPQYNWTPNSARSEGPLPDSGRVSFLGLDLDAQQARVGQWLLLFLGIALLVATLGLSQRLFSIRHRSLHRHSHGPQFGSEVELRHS

proportion of BB9 positive cells [1]: 35 to 80% | proportion of BB9 positive cells [2]: 35 to 80% | proportion of BB9 positive cells [3]: 35 to 80% | proportion of BB9 positive cells [4]: 5 to 35% | proportion of BB9 positive cells [5]: 35 to 80% | proportion of BB9 positive cells [6]: 5 to 35% | proportion of BB9 positive cells [7]: 5 to 35% | proportion of BB9 positive cells [8]: 5 to 35% | proportion of BB9 positive cells [9]: 35 to 80% | proportion of BB9 positive cells [10]: 5 to 35% | proportion of BB9 positive cells [11]: 35 to 80% | proportion of BB9 positive cells [12]: 5 to 35% | proportion of BB9 positive cells [13]: 80 to 100%
Substance: monoclonal antibody BB9
